Test results reported in the nanobody polyreactivity screen of Harvey et al. (2022).

Experiment: yeast display, Sf9 membrane polyspecificity reagent, FACS + sequencing; frameworks hold sequencing errors
Summary of the method: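 Nanobodies came from a synthetic yeast display library in Saccharomyces cerevisiae BJ5465, induced with galactose for 36–48 hours and stained for 1 hour at 4 °C with 10% biotinylated, detergent-solubilized Sf9 membrane reagent. Cells were enriched on streptavidin microbeads and then FACS-sorted, with low and high (top ~1%) gates set on anti-HA fluorescence for expression and streptavidin fluorescence for reagent binding. Each polyreactivity label reflects the gate a clone came from. Genes were amplified by colony PCR, sequenced by MiSeq 2 × 250 and filtered by CDR length.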

| Sequence | polyreactivity (PSR sort gate) |
| --- | --- |
| QVQLVESGGGLVQAGGSLRLSCAASGSTFSRNAMGWYRQAPGKERELVASITRGGSTYADSVKGRFTISRDNAKNTVYLQMNSLKPEDTAVYYCAKSVTGWRGLWYTPRNYYWGQGTQVTVSS | high polyreactivity |
| QVQLVESGGGLVQAGGSLRLICAASGSIFLFNAMGWYRQAPGKERQLVAAISKSGGSTHYADSVKGRFTISRDNAKNTVYLQMNSLKPEDSAVYYCAARVGDLGSQKTDSVYRVYYWGQGTQVTVSS | low polyreactivity |
| QVQLVESGGGLVQAGGSLRLSCAASGRIFSPNAMGWYRQAHVKERELVADITFGDGSTYYADSVKGRFTISRDNAKNTVYLQMNSLIPEDTAVYYCAAELYYLYALYIYYPFYYWGQGTQVTVSS | high polyreactivity |
| QVQLVESGGGLVQAGGSLRLSCAASGSTFRGYAMGWYRHAPGKERELVAAITYISDSTYYADSVKGRFTISRDNAKNTVYLQMNSLKPEDTAVYYCIAYYDGDWRYTSQETGDHWGQGTQVTVSS | low polyreactivity |
| QVQLVESGGGLVQAGGSLRLSCAASGIIYGRYAMGWYRQAPGKERELVAAINASGGSTYYADSVKGRFTISRDNAKNTVYLQMNSLKPEDSAVYYCATRSTRSRTSGYYYWGQGTQVTVSS | high polyreactivity |
| QVQLVESGGGLVQAGGSLRLSCAAPGSTIRANAMGWYRQAPGKEMELVAAITKNGGSTYYADSVKGRFTISRDNAKNTVYLQMNSLKPEDTAVYYCAARRSSRRPPYYYWGQGTQVTVSS | high polyreactivity |
| QVQLVESGGGLVQAGVSLRLSCAASGRTFFLYAMGWYRQAPGKERELVARISTSGGGTYYADSVKGRFTISRDNAKYTVYLQMNSLKPEDTAVYYCAARTFRGQRRAGGYDYWGQGTQVTVSS | high polyreactivity |
| QVQLVESGGGLVQAGGSLRLSCAASGSIFRIYAMGWYRQAPGIERELVAAINAGGGRTYYADSVKGRFTISRDNAKNTVYLLMNSLKPEDTAVYYCAARHTEYRQESLYYWGQGTQVTVSS | low polyreactivity |
| QVQLVESGGGLVQAGGSLRLSCAASGSIFVPNAMGWYRQAPGNERELVADLTRRGGSTYYADSVKGRFTISRDNAKNTVYLQMNSLKPEDTAVYYCNATYLTRSTRLSDFDYWGQGTQVTVSS | high polyreactivity |
| QVQLVESGGGLVQAGGSLRLSCAASGSILRQYAMGWYRQAPGKERELVATISRSGGSKYYADSVKGRFTISRDNAKNTVYLQMNSLKPEDTAVYYCAASRYNKSYREWWVGSWGQGTQVTVSS | high polyreactivity |
| QVQLVESGGGLVQAGGSLRLSCAASGSIFYHNAMGWYRRAPGKEREFVAAITGSGGSTYYADSVKGRFTISRDNAKNTVYLQMNSLKPEDTAVYYCASVGYTKWWISWGYDYWGQGTQVTVSS | low polyreactivity |
| QVQLVESGGGLVHAGGSLRLSCAASGSIFTKYVMGWYRQAPGKERELVAAITYSGGNTYYADSVKGRFTISRDNAKNTVYFQMNSLKPEDTAVYYCAAKSSAHRGGYWGQGTQVTVSS | high polyreactivity |
| QVQLVESGVGLVQAGGSIRLSCAASGRTFRYYTMGWYRQAPGKEREFVAAISSTGGTYYADSVKGRFTISRDNAKNTVYLQMNSLKPEDTAVYYCAATFIQVVVNVQLYDYDYWGQGTQVSVSS | low polyreactivity |
| QVQLQDSGGGLVQAGGSLRLSCAASGYIFGSGSMGWFRQAPGKERELVATINNGSSTYYADSVKGRFTISRDNAINTVYLQMNSLKPEDTAVYYCAAVRIRPLRYYYWGQGTQVTVSS | high polyreactivity |
| QVQLVESGRGLVQAGGSLRLSCAASGFIFSNAIGWYRQAPGKERELVAAISRSGGSTYYADSVKGRVTISRDNAKNTVSLQMNSLKPEDTAVEYCAARSYPRSPVRYDYWGQGTQVTVSS | high polyreactivity |
| QVQLVESGGGLVQAGGSLRLSCAASGITFVAYAMGWYRQAPGKERELVAAISKSGGNTYYADSVKGRFTISRDNAKNTVYLQMNSLKPEDTAVYYCAAPRRYAWGQVNYWGQGTQVTVSS | high polyreactivity |
| QVQLVESGGGLVQAGGSLRLSCAASGSTFNRYAMGWYIQAPGKERELVAAITRSGTSTYYADSVKGRFTISRDNAKNTVYLQMNSLKPEDTAVYYCAAVRYAVHFSYDYWGQGTQVTVSS | high polyreactivity |
| QVQLVESGGGLVQAGGSLRLSCAASGSIFPKYAMGWYRQAPGKERELVAAISRGGGSTYYADSVKGRFTISRDNAKYTVYLQMNSLKPEDTAVYYCAAQYYSLQWEYYYWGQGTQVTVSS | high polyreactivity |
| QVQHVESGGGLGQAGGSLRLSCAASGRIFDEYALGSYRQAPGKERELVAAISLIGASTYYADSVKGRFTISRDTAKNTVYLQMNSQHPEDTAVYYCAAEYAFVVPGYYREVYYWGEGTQVTVSS | low polyreactivity |
| QVQLVESGGGVVQAGGSLRLRCAASGSTVLGYVMGWYRQAPGKERELVAAITRSGGRTYYADSVQGRFTISRDNAKNTVSLQMNSLKPEETAVYYCAALRGPSFHGYGYWGQGTQVTVSS | high polyreactivity |
| QVQLVESGGGLVQAGGSLSLSCAASGIIFIYYGMGWYRQAPGKERELVAAISRSGGRTYYADSVKGRFTISRDNAKNTVYLQMNSLKPEDTAVYYCATTYTPTGFDYWGQGTQVTVSS | high polyreactivity |
| QVQLVESGGGLVQAGGSLRLSCAASGSIFDPYAMGWYIQAPGKERELVAVINDGGRTTYADSVKGRFTISRDNAKNTVYLQMNSLKPEDTAVYYCAADVGYFKSDYWGQGTQVTVSS | low polyreactivity |

| Sequence | polyreactivity (PSR sort gate) |
| --- | --- |
| QVQLVESGGGLVQAGGSLRLSCAASGSTFERYVMGWYRQAPGTERELVAAISRSGGTTYYADSVKGRFTISRDNAKNTVYLHMNSLKPEDTAVYYCAARYSVRGSQRPIYYYWGQGTQVTVSS | high polyreactivity |
| QVQLLESGGGLVQAGGCLRLSCAASGFTFYGYARGWYRQAPGIERELVAGIAKCGTRTYYADSLKGRFTISRDNAENTVFFQMNSLKPEDTAVYYCAARLRRGLTATWYYYWGQGSQVTVSS | high polyreactivity |
| QVQLEESGGGLVQAGGSLRLSCAASGSTFYKYAMGWSRQAPGKERELVASITWSGTSTYYADSVKGRFTISRDNAKNTVYLQMNSLKPEDTAVYYCNAGLEYYYWGYTWEFDYWGQGTQVTVSS | low polyreactivity |
| QVQLVESGGGLVQAGGSLRLSCAASGFIFRPNAMGWYRQAPGKERELVAAITGRSGSTNYADSVKGRFTISRDNAKNTVYLQMNSLKPEDTAVYYCAARVWQGYYPGYYYWGQGTQVTVSS | high polyreactivity |
| QVQLVESGGGLVQAGGSLRLRCAATGSIFTKYAMGWYRQAPGKERELVAAISWSGSRTRYADSVKGRFTISRDNAKNTVYLQMNSLKPEDTAVYYCAAEIAASYRPEYDYWGQGTQVTVSS | high polyreactivity |
| QVQLVESGGGLVQAGGSLRLSCAASGIIIRRYAMGWSRQAPGKERELVAAISWSGGSTYYADSVKGRFTISRDNAKNTVDLQMNSLKPEDTAVYYCAAAAYTRDEYDYWGQGTQVTVSS | high polyreactivity |
| QVQLVESGGGLVQAGGSLRLSCAASGSISKINAMGWYRQAPGKESELGAAINTGDSTYYADSVKGRFTISRDNAKNTVYLQMNSLKPEDTAVYYCAAEGSPTGYDDWGQGTQGTVSS | low polyreactivity |
| QVQLVESGGGLVQAGGSLRLSCAASGSIFRGYAMGSYRQAPGKERELVATIDSSAGSTYYADSVKGRCTISRDNAKNTVYLQMNSLKPEDTAVYYCATDPYGYYYSGFDYWGQGTQVTVSS | low polyreactivity |
| QVQLVESGGGLVQAGGSLRLSCAASGRTFTIYAMGWYRQAPGKERDLVAAITRSGGGTYYADSVKGRFTISRDNAKNTVYLQMNRLKPEDTAVYYCARDKHWFYGVIGPEDYWGQGTQVTVSS | low polyreactivity |
| QVQLVESGGGLVQAGGSLRLSCAASGRTFYPYVMRWYRQAPGKERELVAAITNRGGSTYYADSVKGRFTISRDNAKKTVYLQMNSLKPEDTAVYYCAKRQVGVGHYDHWGQGTQVTVSS | low polyreactivity |
| QVQLVESGGGLVQAGRSLRLSCGASGFTFGLYAMGWYRQATGKERELVAAITSSGRRTYYADSVKGRYTISRDKAKNTVSLEMNCLKPEDTAVYYFAKQAYDQSPYNYWGQGTQVTVSS | high polyreactivity |
| QVQLVESGGGLVQAGGSLRLSCAASGRTFKWYAMGWYRQAPGKERELVAGISRGAGRTYYADSVKWRFTISRDNAKNTFYLEMNSLKPEDTAVYYFAASPVRDGKVIDGRDYWGQGTQVTVSS | high polyreactivity |
| QVQLVESGGGLVQAGGSLRLSCAASGSFYDRYVMGWYRQAPGKERELVAAISSSGGSTYYADSVKGRFTISRDNAKNTVYFQMNSLKPEDSAVYYCAAKFSYGRYNYWGQGTQVTVSS | high polyreactivity |
| QVQLVESGGGLVQAGGSLRLSCAASGSTFLVYAMGWYRQAPGKERELVAVIDNGGDTYYADSVKGRFTISRDNAKNTVYLQMNSLIPEDTEVYYCAADLSYLGYWEYDYWGQGTQVTVSS | low polyreactivity |
| QGQLVESGGGLVQAGGSLRLSCAASGFIFFYYAMGWYRQAPRKERELVATISANGGNTYYADSVKGRFTISRDNAKNTVYLQMNSLKPEDTAVSYCARYTWYLRDWQWYYWGDEDYWGQGTQVTVSS | high polyreactivity |
| QVQLVESGGGLVQAGGRLRLSCAASGRTFATNAMGWYRQAPGKERELVADISGGGSTYYADSVKGRFTISRDNAKNTVYLQMNSLKPEDTAVYYCAARDYHWFQWYDYWGQGTQVTVSS | low polyreactivity |
| QVQLVESGGGLVQAGGSLRISCAASGIIFGEYAMGWYRQAPGKERELVAAISQSGGTYYADSVKGRFTISRDNAKNTVYLQMNSLKPEDTAVYYCNADYWAYISRVRYDYWGQGTQVTVSS | low polyreactivity |
| QVQLVESGGGLVQAGGSLRLSCAASGFIFSRYAMGWYRQAPGKERELVAAISSGGRTNYADSVKGRFTISRDNAKNTVYLQMNSLKPEDTAVYFCAALLRGRSGQFEYDYWGQGTQVTVSS | low polyreactivity |
| QVQLVESGGGLVQAGGSLRLSCAASGYIFLWYAMGWYRQAPGKERELVASISSGSTYYADSVKGRFTISRDNAKNTVYLLMNSLKPEDTAVYYCAAGWFASDYYYWGQGTQVTVSS | low polyreactivity |
| QVQLVESGGGLVQAGGSLRLSCAASGRIFYTYVMGWYIQAPGKERELVASISSSGGSTNYADSVKGRFTISRDNAKNTVYLQMNSLKPEDTAVYYCNKDYIHVSYREDYWGQGTQVTVSS | low polyreactivity |
| QVQLVESGGGLVQAGGSLRLSCAASGRTFQYYAMGWYRQAPGKERELVAAISSRGGSTYYADSVKGRFTISRDNAKNTVYLQMNSLKPEDTAVYYCAAYVLPRQRVRSDYWGQGTQVTVSS | high polyreactivity |
